Patent US20260250711A1 (Alexion, published 2026)

Molecular target: T1, human sortilin receptor (SORT1), recombinant protein (human, UniProt Q99523 78-755, limits assumed)
T1 construct: Recombinant protein; also called sortilin 1
T1 sequence (looked up): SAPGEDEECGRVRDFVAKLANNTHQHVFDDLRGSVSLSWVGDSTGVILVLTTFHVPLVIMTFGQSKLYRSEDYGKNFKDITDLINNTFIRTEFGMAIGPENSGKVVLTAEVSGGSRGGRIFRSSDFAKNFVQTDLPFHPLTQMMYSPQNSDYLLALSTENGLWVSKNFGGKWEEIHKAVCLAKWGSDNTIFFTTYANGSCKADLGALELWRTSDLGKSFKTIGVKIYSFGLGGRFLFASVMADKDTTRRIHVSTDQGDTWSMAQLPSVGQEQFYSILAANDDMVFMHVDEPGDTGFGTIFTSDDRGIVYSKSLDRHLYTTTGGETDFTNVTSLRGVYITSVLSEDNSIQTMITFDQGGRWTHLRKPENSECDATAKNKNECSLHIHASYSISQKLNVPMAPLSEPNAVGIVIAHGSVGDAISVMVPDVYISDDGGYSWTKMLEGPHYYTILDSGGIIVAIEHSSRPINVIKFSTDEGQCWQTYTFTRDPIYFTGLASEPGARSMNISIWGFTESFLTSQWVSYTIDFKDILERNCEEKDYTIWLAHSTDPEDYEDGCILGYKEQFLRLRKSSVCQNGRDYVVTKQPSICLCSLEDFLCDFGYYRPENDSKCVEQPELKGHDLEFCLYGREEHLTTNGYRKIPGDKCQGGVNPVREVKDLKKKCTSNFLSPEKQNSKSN
Assay: Biacore (SPR), His-tagged PGRNΔ3 over immobilized human sortilin

B1: recombinant human His-tagged progranulin lacking the final three carboxy-terminal amino acids (PGRNΔ3) (ligand)
chain: TRCPDGQFCPVACCLDPGGASYSCCRPLLDKWPTTLSRHLGGPCQVDAHCSAGHSCIFTVSGTSSCCPFPEAVACGDGHHCCPRGFHCSADGRSCFQRSGNNSVGAIQCPDSQFECPDFSTCCVMVDGSWGCCPMPQASCCEDRVHCCPHGAFCDLVHTRCITPTGTHPLAKKLPAQRTNRAVALSSSVMCPDARSRCPDGSTCCELPSGKYGCCPMPNATCCSDHLHCCPQDTVCDLIQSKCLSKENATTDLLTKLPAHTVGDVKCDMEVSCPDGYTCCRLQSGAWGCCPFTQAVCCEDHIHCCPAGFTCDTQKGTCEQGPHQVPWMEKAPAHLSLPDPQALKRDVPCDNVSSCPSSDTCCQLTSGEWGCCPIPEAVCCSDHQHCCPQGYTCVAEGQCQRGSEIVAGLEKMPARRASLSHPRDIGCDQHTSCPVGQTCCPSLGGSWACCQLPHAVCCEDRQHCCPAGYTCNVKARSCEKEVVSAQPATFLARSPHVGVKDVECGEGHFCHDNQTCCRDNRQGWACCPYRQGVCCADRRHCCPAGFRCAARGTKCLRREAPRWDAPLRDPALR
notes: also called PGRNDel3; progranulinΔ3; not shown: HIS-tag fused to the N-terminal part of the protein
B1: no binding.
